Laboratory results as given in patent publication US12691168B2, “Vaccine for preventing and treating Merkel cell carcinoma” (priority 2020, dated 2026).

B1: rVP1: recombinant VP1 from inclusion bodies, disassembled with DTT/EGTA and reassembled under GSSG-GSH condition (protein)
chain: MAPKRKASSTCKTPKRQCIPKPGCCPNVASVPKLLVKGGVEVLSVVTGEDSITQIELYLNPRMGVNSPDLPTTSNWYTYTYDLQPKGSSPDQPIKENLPAYSVARVSLPMLNEDITCDTLQMWEAISVKTEVVGISSLINVHYWDMKRVHDYGAGIPVSGVNYHMFAIGGEPLDLQGLVLDYQTEYPKTTNGGPITIETVLGRKMTPKNQGLDPQAKAKLDKDGNYPIEVWCPDPSKNENSRYYGSIQTGSQTPTVLQFSNTLTTVLLDENGVGPLCKGDGLFISCADIVGFLFKTSGKMALHGLPRYFNVTLRKRWVKNPYPVVNLINSLFSNLMPKVSGQPMEGKDNQVEEVRIYEGSEQLPGDPDIVRFLDKFGQEKTVYPKPSVAPAAVTFQSNQQDKGKAPLKGPQKASQKESQTQELHHHHHH
B2: sVP1: soluble VP1 expressed under low-temperature induction (protein)
chain: B1 chain

Experiments:
CMS5 cells = assay: Killing effect of puromycin on CMS5 cells (trypan blue staining, microscope); type: cell-based; conditions: puromycin 5 μg/mL, 24 h of culture
Description: In order to determine the killing dose of puromycin to CMS5, CMS5 cells were cultured in RPMI1640 (10% FBS, 1% […]) complete media with different concentrations of puromycin. 24 h later, cells were stained with trypan blue and observed under a microscope for mortality to determine the drug concentration for 100% lethality of CMS5 cells as the drug pressure for CMS5-VP1 cell line screening. […] After 24 h of culture, the CMS5 cells digested with trypsin were stained with trypan blue and the lethality of the cells was calculated microscopically to determine the final puromycin drug concentration. […]

[1] = test system: DTH (delayed type hypersensitivity); assay: Delayed type hypersensitivity (DTH), foot pad / paw swelling after antigen injection; type: in vivo, mice; conditions: Example 13; two immunizations; 24 h after injection of rVP1; therapeutic vaccine groups compared with Vac group
Description: Delayed Type Hypersensitivity (DTH): the mice were immunized with the vaccine, and 7 days after the final immunization, 10 μL of antigen protein (10 μg) was injected into the hindfoot pad on the immunized side (right side) of the mice, and 10 μL of phosphate buffer was injected into the hindfoot pad on the side opposite to the immunized side (left side). The thickness of both hindfoot pads of the mice was measured 24 h and 48 h after DTH with a vernier caliper, and the measurement was performed three times at the same site to take the average. DTH value (mm)=right foot pad thickness−left foot pad thickness.
On day 7 after the immunization program, mice were injected with 10 μL of PBS or 10 μg of rVP1 (10 μL) at the left and right hind limb paws.
The paw swelling thickness was calculated for each experimental group according to the formula, and the differences between all vaccine groups were analyzed with GraphPad Prism statistical software.

[2] = Particle size by nano particle sizer; type: physicochemical
Description: 5) The VP1 was detected for pentamer formation by Nu-PAGE. The MCV-VP1 particle size was measured using a nano particle sizer.
3) Reassembled (also known as self-assembled) recombinant VP1 was named (rVP1), and rVP1 was filtered through a […] needle filter for sterilization, detected for the pentamer structure by Nu-PAGE, and measured for the particle size by a nano particle sizer.

[3] = test system: anti-VP1 antibody in serum; assay: VP1-specific antibody titer in serum of immunized mice by ELISA; type: in vivo, BALB/c mice; conditions: Example 14; antigen adsorbed to Al(OH)3, i.m. days 0 and 14, blood day 28; plate coated with sVP1
Description: Enzyme-linked immunosorbent assay: on day 21, blood samples were collected from the mice, and the serum was determined for specific antibody titer by ELISA. When the antibody concentration in the mouse serum needs to be semi-quantitatively determined, a standard curve is added on the basis of the conventional ELISA, and the concentration of the antibody in the mouse serum is determined according to the concentration of the standard curve.
Blood was taken from the fundus of BALB/c mice who have completed the immunization program on day 28 after the initial immunization and left to stand at 4° C. overnight. The blood was centrifuged at 6000 rpm for 10 min to obtain serum. The level of anti-VP1 antibody in serum was determined by ELISA. The specific procedures were as follows: […]
The optical absorbance values were read at OD450/OD620 nm, and a value of 2.1 times the OD value of the negative control group was taken as a cutoff value. […]
In order to obtain a large amount of VP1, VP1 expressed under high-temperature induction in a fermentation tank mainly formed inclusion bodies. […] The antigen-specific antibody titer was determined by enzyme-linked immunosorbent assay (ELISA), and the specific procedures were as follows: […]
Reading: optical absorbance values were read at OD450/OD620. […]

| Molecule | dead CMS5 cells, trypan blue staining (CMS5 cells) [%] | state of the cells observed under a microscope (CMS5 cells) | DTH reaction (paw swelling thickness) [1] | particle size [2] | antigen-specific antibody titer relative to sVP1 [3] |
| --- | --- | --- | --- | --- | --- |
| COc1ccc(C[C@H](N)C(=O)N[C@H]2[C@@H](O)[C@H](n3cnc4c(N(C)C)ncnc43)O[C@@H]2CO)cc1 [puromycin] | 100 | died in large numbers |  |  |  |
| B1 |  |  | not significant | 115.3 nm | twice those of sVP1 |
| B2 |  |  |  | much higher than that of rVP1 |  |
